Reference: publication PMC5428876, “The role of Lon-mediated proteolysis in the dynamics of mitochondrial nucleic acid-protein complexes”

What was measured:
[1] = biological target: T1, Abf2 (Saccharomyces cerevisiae, UniProt Q02486 27-183, del1-26); experiment: EMSA; 25 mM Tris-HCl pH 7.4, 100 mM NaCl, 0.1 mg/ml BSA, 10 min, 30 C (Abf2) or 37 C (TFAM); Cy3 probes 75 nM, ssDNA 10 uM, dsDNA 4 uM; Mgm101 as in Pevala et al.; settings: protein: recombinant, tags: 6xHis-GST removed by PreScission, chain copies: 2, label: 5' Cy3
T1 sequence: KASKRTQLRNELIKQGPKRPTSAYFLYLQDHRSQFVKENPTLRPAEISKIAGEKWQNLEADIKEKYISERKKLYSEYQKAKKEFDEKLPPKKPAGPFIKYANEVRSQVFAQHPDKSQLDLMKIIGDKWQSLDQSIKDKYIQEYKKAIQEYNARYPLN

[2] = biological target: T2, Saccharomyces cerevisiae mtDNA packaging protein Abf2 lacking the mitochondrial targeting sequence (S. cerevisiae), Q02486; experiment: SEC; final purification step of Abf2 on Superdex 75 10/300 GL in buffer B (50 mM ammonium acetate, pH 7.3, 500 mM KCl) with 5% (v/v) glycerol; settings: remark: other sources report otherwise
T2 chain: T1 sequence

B1: dsDNA 49 bp (dsDNA)
DNA 1: AGCTACCATGCCTGCACGAATTAAGCAATTCGTAATCATGGTCATAGCT
DNA 2: AGCTATGACCATGATTACGAATTGCTTAATTCGTGCAGGCATGGTAGCT
- binding result ([1]; blunt): binds

B2: fork (structured_DNA)
DNA 1: B1 DNA 1
DNA 2: AGCTATGACCATGATTACGAATTGCTTGGAATCCTGACGAACTGTAG
DNA 3: CTACAGTTCGTCAGGATTCC
DNA 4: AATTCGTGCAGGCATGGTAGCT
- binding result ([1]; fork): binds

B3: Y-form (structured_DNA)
DNA 1: B1 DNA 1
DNA 2: B2 DNA 2
- binding result ([1]; Y-form): binds

B4: 3' overhang (mixed)
DNA 1: B1 DNA 1
DNA 2: AATTCGTGCAGGCATGGTAGCT
- binding result ([1]; 3' overhang 27 nt): binds

B5: 5' overhang (mixed)
DNA 1: B1 DNA 1
DNA 2: AGCTATGACCATGATTACGAATTGCTT
- binding result ([1]; 5' overhang 22 nt): binds

B6: 3' flap (structured_DNA)
DNA 1: B1 DNA 1
DNA 2: AATTCGTGCAGGCATGGTAGCT
DNA 3: B2 DNA 2
- binding result ([1]; flap 1:2 1:3, 3' flap 20 nt on strand 3): binds

B7: 5' flap (structured_DNA)
DNA 1: B1 DNA 1
DNA 2: AGCTATGACCATGATTACGAATTGCTT
DNA 3: GATGTCAAGCAGTCCTAAGGAATTCGTGCAGGCATGGTAGCT
- binding result ([1]; flap 1:2 1:3, 5' flap 20 nt on strand 3): binds

B8: Saccharomyces cerevisiae mtDNA packaging protein Abf2 lacking the mitochondrial targeting sequence, Q02486 27-183 (natural protein)
chain: T1 sequence
- stoichiometry N [2]: 2
